The experiment concerns the target T1, recombinant human PD-1 protein (human, UniProt Q15116 25-167, limits assumed).
T1 construct: The construct is not described; also called human recombinant PD-1
In words: screening of the anti-PD-1 phage display library; method not detailed.

T1 sequence (Q15116 25-167 limits assumed): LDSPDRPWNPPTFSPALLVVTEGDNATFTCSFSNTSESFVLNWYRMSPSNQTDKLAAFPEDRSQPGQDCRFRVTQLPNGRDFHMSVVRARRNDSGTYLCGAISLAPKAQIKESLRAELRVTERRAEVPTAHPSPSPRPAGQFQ

B1: Anti-PD-1 sdAb VHH (VHH)
VHH: QVQLVESGGGLVQPGGSLRLSCATSGSRRSIYAMGWFRQAPGKGLEFVAGIGWAYATTYYADSVKGRFTISRDNTKNTLYLQMNSLRAEDTAVYYCAADLDHSGFDYWGQGTLVTVSS
notes: Obtained from an alpaca phage display library; also called anti-PD-1 VHH antibody; VHH single-domain antibody
With B1, the binding result was “binds”.

These data come from patent US20260035463A1 (MINGHUI PHARMACEUTICAL HANGZHOU, published 2026).
